According to patent US9284543B2, “Neutral active soluble truncated PH20 polypeptides and uses thereof” (Halozyme, Inc., priority 2008, dated 2016):

B1: SPAM1-GVCI: C-terminally truncated human PH20, precursor 465 aa (SEQ ID NO:35), mature 430 aa (SEQ ID NO:87) (protein, listed as Homo sapiens)
chain 1: MGVLKFKHIFFRSFVKSSGVSQIVFTFLLIPCCLTLNFRAPPVIPNVPFLWAWNAPSEFCLGKFDEPLDMSLFSFIGSPRINATGQGVTIFYVDRLGYYPYIDSITGVTVNGGIPQKISLQDHLDKAKKDITFYMPVDNLGMAVIDWEEWRPTWARNWKPKDVYKNRSIELVQQQNVQLSLTEATEKAKQEFEKAGKDFLVETIKLGKLLRPNHLWGYYLFPDCYNHHYKKPGYNGSCFNVEIKRNDDLSWLWNESTALYPSIYLNTQQSPVAATLYVRNRVREAIRVSKIPDAKSPLPVFAYTRIVFTDQVLKFLSQDELVYTFGETVALGASGIVIWGTLSIMRSMKSCLLLDNYMETILNPYIINVTLAAKMCSQVLCQEQGVCIRKNWNSSDYLHLNPDNFAIQLEKGGKFTVRGKPTLEDLEQFSEKFYCSCYSTLSCKEKADVKDTDAVDVCIADGVCI
chain 2: LNFRAPPVIPNVPFLWAWNAPSEFCLGKFDEPLDMSLFSFIGSPRINATGQGVTIFYVDRLGYYPYIDSITGVTVNGGIPQKISLQDHLDKAKKDITFYMPVDNLGMAVIDWEEWRPTWARNWKPKDVYKNRSIELVQQQNVQLSLTEATEKAKQEFEKAGKDFLVETIKLGKLLRPNHLWGYYLFPDCYNHHYKKPGYNGSCFNVEIKRNDDLSWLWNESTALYPSIYLNTQQSPVAATLYVRNRVREAIRVSKIPDAKSPLPVFAYTRIVFTDQVLKFLSQDELVYTFGETVALGASGIVIWGTLSIMRSMKSCLLLDNYMETILNPYIINVTLAAKMCSQVLCQEQGVCIRKNWNSSDYLHLNPDNFAIQLEKGGKFTVRGKPTLEDLEQFSEKFYCSCYSTLSCKEKADVKDTDAVDVCIADGVCI
modifications: HuPH20 precursor 1-465; Mature HuPH20 36-465
B2: SPAM1-DGVC: C-terminally truncated human PH20, precursor 464 aa (SEQ ID NO:36), mature 429 aa (SEQ ID NO:88) (protein, listed as Homo sapiens)
chain 1: MGVLKFKHIFFRSFVKSSGVSQIVFTFLLIPCCLTLNFRAPPVIPNVPFLWAWNAPSEFCLGKFDEPLDMSLFSFIGSPRINATGQGVTIFYVDRLGYYPYIDSITGVTVNGGIPQKISLQDHLDKAKKDITFYMPVDNLGMAVIDWEEWRPTWARNWKPKDVYKNRSIELVQQQNVQLSLTEATEKAKQEFEKAGKDFLVETIKLGKLLRPNHLWGYYLFPDCYNHHYKKPGYNGSCFNVEIKRNDDLSWLWNESTALYPSIYLNTQQSPVAATLYVRNRVREAIRVSKIPDAKSPLPVFAYTRIVFTDQVLKFLSQDELVYTFGETVALGASGIVIWGTLSIMRSMKSCLLLDNYMETILNPYIINVTLAAKMCSQVLCQEQGVCIRKNWNSSDYLHLNPDNFAIQLEKGGKFTVRGKPTLEDLEQFSEKFYCSCYSTLSCKEKADVKDTDAVDVCIADGVC
chain 2: LNFRAPPVIPNVPFLWAWNAPSEFCLGKFDEPLDMSLFSFIGSPRINATGQGVTIFYVDRLGYYPYIDSITGVTVNGGIPQKISLQDHLDKAKKDITFYMPVDNLGMAVIDWEEWRPTWARNWKPKDVYKNRSIELVQQQNVQLSLTEATEKAKQEFEKAGKDFLVETIKLGKLLRPNHLWGYYLFPDCYNHHYKKPGYNGSCFNVEIKRNDDLSWLWNESTALYPSIYLNTQQSPVAATLYVRNRVREAIRVSKIPDAKSPLPVFAYTRIVFTDQVLKFLSQDELVYTFGETVALGASGIVIWGTLSIMRSMKSCLLLDNYMETILNPYIINVTLAAKMCSQVLCQEQGVCIRKNWNSSDYLHLNPDNFAIQLEKGGKFTVRGKPTLEDLEQFSEKFYCSCYSTLSCKEKADVKDTDAVDVCIADGVC
modifications: HuPH20 precursor 1-464; Mature HuPH20 36-464

Columns and labels:
[1] = Microtiter hyaluronidase activity assay with biotinylated-hyaluronic acid; type: biochemical; conditions: Table 6, 72 hour post transfection supernatant
Procedure: In Example 4, the hyaluronidase activity of truncated human PH20 hyaluronidase is determined using biotinylated hyaluronic acid. The free carboxyl groups on the glucuronic acid residues of hyaluronic acid are biotinylated, and the biotinylated hyaluronic acid substrate is covalently coupled to a microtiter plate. Following incubation with hyaluronidase, the residual biotinylated hyaluronic acid substrate is detected using an avidin-peroxidase reaction, and compared to that obtained following reaction with hyaluronidase standards of known activity. […] The sensitivity permits rapid measurement of hyaluronidase activity from cultured cells and biological samples with an inter-assay variation of less than 10%.
In this example, the human PH20 hyaluronidase carboxy-terminus deletion mutants were tested for their PH20 hyaluronidase activity using a microtiter assay with biotinylated-hyaluronic acid (biotinylated-HA or bHA). The human PH20 hyaluronidase carboxy-terminus deletion mutants were tested for hyaluronidase activity at both pH 7.4 and pH 5.5.
In short, a 4×BH 96-well plate was coated with biotinylated-HA (1.1 MDa). The 72 hour post transfection supernatant from cells transfected with human PH20 hyaluronidase carboxy-terminus deletion mutants was diluted in buffer at either pH 7.4 or pH 5.5 and added to individual wells of the plate and allowed to incubate at 37° C. for 90 minutes. The reaction was terminated by addition of 4M guanidine HCl. The wells were washed 4× with Phosphate Buffered Saline with Tween20 (PBST) to remove any digested biotinylated-HA followed by addition of streptavidin-HRP for 1 hour at room temperature. The wells were washed 4× with PBST and the plate was developed with TMB. The plate was read at 450 nm using an ELISA plate reader. Hyaluronidase activity (in Units/mL) was determined by interpolating the measured absorbance at 450 nm with a hyaluronidase reference standard curve. Full length mature human PH20 hyaluronidase and untransfected CHO cells were used as positive and negative controls.

CHO-S cells = test: Western blot analysis of PH20 expression in media and cells after transient expression; type: cell-based, Chinese Hamster; conditions: media versus cells
Procedure: The mutant PH20-HZ24 plasmids generated in Example 1 were transiently […] into CHO—S cells (derived from Chinese Hamster Ovary CHO K1 cells) using GeneJuice® (Novagen) according to the manufacturer's instructions. In short, the CHO—S cells were grown in CD CHO medium supplemented with L-glutamine. Prior to transfection, the CHO—S cells were plated in 6-well plates, with approximately 5×10^5 cells per well, and grown overnight at 37° C. with 5% CO2. The medium was then removed and the CHO—S cells were washed 2 times with 1 mL serum-free medium. GeneJuice® was mixed with serum-free media followed by the addition of 2 μg mutant-HZ24 DNA. After incubating at room temperature for 5-15 minutes, the GeneJuice®/DNA mixture was added dropwise to an individual well containing the washed CHO—S cells. After 4 hours, the medium was replaced with 1 mL CD-CHO medium supplemented with L-glutamine and the cells were incubated for 72 hours at 37° C. with 5% CO2. Following expression, the media and cells were harvested separately.
The mutant PH20-HZ24 plasmids generated in Example 1 were transiently […] into CHO—S cells using GeneJuice® (Novagen) according to the manufacturer's instructions. […]
In this example, following transient expression, as described in Example 2 above, the media and cells were harvested separately and analyzed for PH20 expression and solublility by Western blot analysis. Solubility of the C-terminus truncation mutants was determined by examining whether the expressed protein was present in the growth media or in the cells. […] Cells expressing these mutants were treated with phosphoinositol-phospholipase C (PI-PLC), which cleaves the GPI-anchor allowing the release of soluble protein into the media, and the presence of PH20 in the resulting media and cells was determined by Western blot analysis.
Non-reduced samples were run on a 4-20% Tris-Glycine gel and transferred to PVDF membrane using iBlot (Invitrogen). For the Western blot, rabbit anti-PH20 IgG (0.5 μg/mL) was used as the primary antibody and HRP-conjugated goat anti-rabbit IgG (0.1 ng/mL, Cat#DC03L, EMD) was used as the secondary antibody. Evidence of expression is determined by a band at approximately 66 kDa, corresponding to recombinant human PH20 hyaluronidase.

Molecule | pH 5.5 Activity [1] [Units/ml] | pH 7.4 Activity [1] [Units/ml] | Expressed in Media (CHO-S cells)
B1 | 0.468 | 0.441 | YES
B2 | 0.045 | 0 | YES
